Source: paper PMC3756332 (Scientific Reports, 2013)

Target: T1, rabbit cytochrome P450 2B4 (rabbit, UniProt P00178 1-491)
T1 sequence (looked up): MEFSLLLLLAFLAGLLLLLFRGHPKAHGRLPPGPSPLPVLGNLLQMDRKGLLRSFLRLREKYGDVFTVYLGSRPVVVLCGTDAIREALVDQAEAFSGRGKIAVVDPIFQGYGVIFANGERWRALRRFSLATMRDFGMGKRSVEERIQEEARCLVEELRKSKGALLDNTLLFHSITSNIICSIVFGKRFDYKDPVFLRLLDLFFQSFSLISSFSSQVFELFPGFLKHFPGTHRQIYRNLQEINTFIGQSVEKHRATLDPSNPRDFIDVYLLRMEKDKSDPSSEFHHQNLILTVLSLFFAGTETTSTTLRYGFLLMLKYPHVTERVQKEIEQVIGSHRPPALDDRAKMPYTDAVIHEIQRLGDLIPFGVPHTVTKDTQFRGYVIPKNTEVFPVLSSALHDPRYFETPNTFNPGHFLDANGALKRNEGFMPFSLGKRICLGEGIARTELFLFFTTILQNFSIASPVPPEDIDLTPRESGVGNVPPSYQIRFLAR
Assay: type I spectral change

binding result: binds
B1: rabbit cytochrome b5 (natural protein, UniProt P00169 1-134, looked up)
chain: MAAQSDKDVKYYTLEEIKKHNHSKSTWLILHHKVYDLTKFLEEHPGGEEVLREQAGGDATENFEDVGHSTDARELSKTFIIGELHPDDRSKLSKPMETLITTVDSNSSWWTNWVIPAISALIVALMYRLYMADD
modifications: uniformly 15N-labeled (in the NMR experiments)
